Residue numbers refer to the chain shown, from its start.
T1: Hop2 (G203N)-Mnd1, MBP-tagged (mouse, UniProt O35047 1-217; Q8K396 1-205, G203N)
T1 construct: Hop2, mouse; Mnd1, mouse; also called the G203N mutant; source: E. coli, purified; not shown: MBP, N-terminal, kept
T1 sequence (looked up) 1: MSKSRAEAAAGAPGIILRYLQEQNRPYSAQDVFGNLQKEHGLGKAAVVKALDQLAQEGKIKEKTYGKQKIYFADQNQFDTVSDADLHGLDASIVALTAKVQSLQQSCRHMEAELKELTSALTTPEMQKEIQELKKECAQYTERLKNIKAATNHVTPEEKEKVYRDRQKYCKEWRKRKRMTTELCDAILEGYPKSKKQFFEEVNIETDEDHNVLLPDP
T1 sequence (looked up) 2: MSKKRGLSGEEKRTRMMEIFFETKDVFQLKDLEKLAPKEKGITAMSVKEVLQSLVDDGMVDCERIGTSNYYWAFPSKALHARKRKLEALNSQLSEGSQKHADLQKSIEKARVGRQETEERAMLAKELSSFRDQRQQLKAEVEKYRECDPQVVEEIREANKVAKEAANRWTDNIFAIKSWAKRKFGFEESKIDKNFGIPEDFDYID

T2: Hop2 (K63A/Y65A/K67A)-Mnd1 (mouse, UniProt O35047 1-217; Q8K396 1-205, K63A | Y65A | K67A)
T2 construct: Hop2, mouse; Mnd1, mouse; also called Hop2-KYK-Mnd1; source: E. coli, purified
T2 sequence (looked up) 1: T1 sequence (looked up) 1 with K63A, Y65A, K67A, N203G
T2 sequence (looked up) 2: T1 sequence (looked up) 2

T3: Hop2-Mnd1 (R64A/Y70A/Y71A) (mouse, UniProt O35047 1-217; Q8K396 1-205, R64A | Y70A | Y71A)
T3 construct: Hop2, mouse; Mnd1, mouse; also called Hop2-Mnd1-RYY; source: E. coli, purified
T3 sequence (looked up) 1: T1 sequence (looked up) 1 with N203G
T3 sequence (looked up) 2: T1 sequence (looked up) 2 with R64A, Y70A, Y71A

T4: Hop2 (R176A)-Mnd1 (mouse, UniProt O35047 1-217; Q8K396 1-205, R176A)
T4 construct: Hop2, mouse; Mnd1, mouse; source: E. coli, purified
T4 sequence (looked up) 1: T1 sequence (looked up) 1 with R176A, N203G
T4 sequence (looked up) 2: T1 sequence (looked up) 2

T5: Hop2-Mnd1 (KYK+RYY) (mouse, UniProt O35047 1-217; Q8K396 1-205, K63A | Y65A | K67A | R64A | Y70A | Y71A)
T5 construct: Hop2, mouse; Mnd1, mouse; also called Hop2-KYK-Mnd1-RYY; Hop2-KYK/Mnd1-RYY; source: E. coli, purified
T5 sequence (looked up) 1: T1 sequence (looked up) 1 with K63A, Y65A, K67A, N203G
T5 sequence (looked up) 2: T1 sequence (looked up) 2 with R64A, Y70A, Y71A

B1: (His)6-tagged Mnd1 (natural protein, mouse, UniProt Q8K396 1-205, looked up)
chain: T1 sequence (looked up) 2
notes: Mnd1, mouse, without Hop2; also called purified Mnd1 alone; source: purified
B2: Hop2^126-217-Mnd1 (complex, mouse)
chain 1: MQKEIQELKKECAQYTERLKNIKAATNHVTPEEKEKVYRDRQKYCKEWRKRKRMTTELCDAILEGYPKSKKQFFEEVGIETDEDHNVLLPDP
chain 2: T1 sequence (looked up) 2
notes: Hop2, mouse, residues 126-217; Mnd1, mouse; source: E. coli, purified
B3: human DMC1 (natural protein, UniProt Q14565 1-340, looked up)
chain: MKEDQVVAEEPGFQDEEESLFQDIDLLQKHGINVADIKKLKSVGICTIKGIQMTTRRALCNVKGLSEAKVDKIKEAANKLIEPGFLTAFEYSEKRKMVFHITTGSQEFDKLLGGGIESMAITEAFGEFRTGKTQLSHTLCVTAQLPGAGGYPGGKIIFIDTENTFRPDRLRDIADRFNVDHDAVLDNVLYARAYTSEHQMELLDYVAAKFHEEAGIFKLLIIDSIMALFRVDFSGRGELAERQQKLAQMLSRLQKISEEYNVAVFVTNQMTADPGATMTFQADPKKPIGGHILAHASTTRISLRKGRGELRIAKIYDSPEMPENEATFAITAGGIGDAKE
notes: DMC1, human; source: insect cells infected with a recombinant DMC1 baculovirus, purified
B4: Hop2-Mnd1^100-205 (complex, mouse)
chain 1: T1 sequence (looked up) 1 with N203G
chain 2: HADLQKSIEKARVGRQETEERAMLAKELSSFRDQRQQLKAEVEKYRECDPQVVEEIREANKVAKEAANRWTDNIFAIKSWAKRKFGFEESKIDKNFGIPEDFDYID
notes: Hop2, mouse; Mnd1, mouse, residues 100-205; source: E. coli, purified
B5: human RAD51 (natural protein, UniProt Q06609 1-339, looked up)
chain: MAMQMQLEANADTSVEEESFGPQPISRLEQCGINANDVKKLEEAGFHTVEAVAYAPKKELINIKGISEAKADKILAEAAKLVPMGFTTATEFHQRRSEIIQITTGSKELDKLLQGGIETGSITEMFGEFRTGKTQICHTLAVTCQLPIDRGGGEGKAMYIDTEGTFRPERLLAVAERYGLSGSDVLDNVAYARAFNTDHQTQLLYQASAMMVESRYALLIVDSATALYRTDYSGRGELSARQMHLARFLRMLLRLADEFGVAVVITNQVVAQVDGAAMFAADPKKPIGGNIIAHASTTRLYLRKGRGETRICKIYDSPCLPEAEAMFAINADGVGDAKD
notes: RAD51, human; source: E. coli, purified

What was measured:
Conditions in all cases: both partners purified
human RAD51 [1] = biological target: B5; experiment: pull-down; Ni2+-NTA resin captures (His)6-Hop2-Mnd1 or (His)6-Mnd1 (5 uM) incubated with RAD51 (8 uM); buffer A (25 mM Tris-HCl pH 7.5, 10% glycerol, 0.5 mM EDTA, 0.01% Igepal, 10 mM imidazole), 50-250 mM KCl, with or without 2 mM MgCl2 and 2 mM ATP (or other nucleotides); 4 C; SDS-PAGE, Coomassie
human RAD51 [2] = biological target: B5; experiment: pull-down; affinity pulldown of RAD51 with truncation mutants of Hop2-Mnd1 (Supplementary Figure S3b, c); resin and tag not told
[3] = biological target: T1, Hop2 (G203N)-Mnd1, MBP-tagged; experiment: pull-down; amylose resin captures MBP-tagged Hop2-Mnd1 or mutant incubated with RAD51 or DMC1; buffer A without imidazole; 4 C; SDS-PAGE, Coomassie
[4] = biological target: T2, Hop2 (K63A/Y65A/K67A)-Mnd1; experiment: pull-down; affinity pulldown of RAD51 with the DNA binding mutants of Hop2-Mnd1; only summarized in Table 1; resin and tag not told
[5] = biological target: T3, Hop2-Mnd1 (R64A/Y70A/Y71A); experiment: as above
Hop2 (R176A)-Mnd1 = biological target: T4, Hop2 (R176A)-Mnd1; experiment: as above
Hop2-Mnd1 (KYK+RYY) = biological target: T5, Hop2-Mnd1 (KYK+RYY); experiment: as above

Q: Does B1 bind (human RAD51 [1])?
A: binds

Q: Does B2 bind (human RAD51 [2])?
A: binds

Q: Does B3 bind [3]?
A: binds

Q: Does B4 bind (human RAD51 [2])?
A: binds

Q: What does the source list for B5?
A: binding result [4]: binds; binding result [5]: binds; binding result (Hop2 (R176A)-Mnd1): binds; binding result (Hop2-Mnd1 (KYK+RYY)): binds; binding result [3]: binds
